Assay [1] deals with rat acid sensing ion channel subtype 1a (homomeric, expressed in Xenopus laevis oocytes) (rat) (UniProt P55926). The experiment in a line: cell-based or functional assay.
For assay [2] the target is unchanged. Nature of the assay: inhibition of rASIC1a currents in Xenopus oocytes.
Assay [3] addresses T1, rat acid sensing ion channel subtype 2a (homomeric, expressed in Xenopus laevis oocytes) (rat, UniProt Q62962 1-512).
T1 sequence: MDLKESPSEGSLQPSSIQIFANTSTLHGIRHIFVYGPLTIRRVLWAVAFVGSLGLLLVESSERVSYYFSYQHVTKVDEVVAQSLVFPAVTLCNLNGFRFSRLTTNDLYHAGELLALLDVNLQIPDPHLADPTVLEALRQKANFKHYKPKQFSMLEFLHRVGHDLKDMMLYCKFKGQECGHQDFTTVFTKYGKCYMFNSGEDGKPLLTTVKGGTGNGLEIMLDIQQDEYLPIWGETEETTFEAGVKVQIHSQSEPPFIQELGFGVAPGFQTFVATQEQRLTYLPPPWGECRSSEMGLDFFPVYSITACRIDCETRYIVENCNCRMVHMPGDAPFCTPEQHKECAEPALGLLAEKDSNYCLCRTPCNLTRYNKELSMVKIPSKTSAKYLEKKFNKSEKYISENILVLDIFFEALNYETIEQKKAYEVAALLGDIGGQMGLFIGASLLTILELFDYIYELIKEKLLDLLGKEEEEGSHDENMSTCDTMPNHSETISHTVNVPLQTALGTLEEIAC
Nature of the assay: cell-based or functional assay.

The target of assay [4] is T2, rat acid sensing ion channel subtype 3 (homomeric, expressed in Xenopus laevis oocytes) (rat, UniProt O35240 1-533).
T2 sequence: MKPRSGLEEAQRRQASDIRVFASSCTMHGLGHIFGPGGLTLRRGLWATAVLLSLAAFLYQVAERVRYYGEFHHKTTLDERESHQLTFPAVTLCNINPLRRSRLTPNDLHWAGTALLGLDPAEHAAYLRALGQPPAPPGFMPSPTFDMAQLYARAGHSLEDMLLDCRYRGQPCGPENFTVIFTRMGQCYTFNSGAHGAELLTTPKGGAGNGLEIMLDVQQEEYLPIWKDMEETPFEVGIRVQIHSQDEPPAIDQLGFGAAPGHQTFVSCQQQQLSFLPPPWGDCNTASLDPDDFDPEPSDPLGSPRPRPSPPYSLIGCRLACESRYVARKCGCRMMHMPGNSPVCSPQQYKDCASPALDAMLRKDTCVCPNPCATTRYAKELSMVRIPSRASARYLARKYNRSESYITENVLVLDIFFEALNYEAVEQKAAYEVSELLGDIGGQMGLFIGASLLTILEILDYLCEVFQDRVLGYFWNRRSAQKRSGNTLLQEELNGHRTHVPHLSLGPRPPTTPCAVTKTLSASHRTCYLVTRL
Nature of the assay: cell-based or functional assay.

The target of assay [5] is human acid sensing ion channel subtype 1a (homomeric, expressed in Xenopus laevis oocytes) (human), P78348. Nature of the assay: cell-based or functional assay.
In assay [6] the target is rat acid sensing ion channel subtype 1b (homomeric, expressed in Xenopus laevis oocytes) (rat), P55926. The experiment in a line: cell-based or functional assay.

Broadly, the IC50 is the concentration that gives 50% inhibition. Higher therefore signals a need for much substance.

Chain of rat acid sensing ion channel subtype 1a (homomeric, expressed in Xenopus laevis oocytes) (rat) (P55926 whole entry): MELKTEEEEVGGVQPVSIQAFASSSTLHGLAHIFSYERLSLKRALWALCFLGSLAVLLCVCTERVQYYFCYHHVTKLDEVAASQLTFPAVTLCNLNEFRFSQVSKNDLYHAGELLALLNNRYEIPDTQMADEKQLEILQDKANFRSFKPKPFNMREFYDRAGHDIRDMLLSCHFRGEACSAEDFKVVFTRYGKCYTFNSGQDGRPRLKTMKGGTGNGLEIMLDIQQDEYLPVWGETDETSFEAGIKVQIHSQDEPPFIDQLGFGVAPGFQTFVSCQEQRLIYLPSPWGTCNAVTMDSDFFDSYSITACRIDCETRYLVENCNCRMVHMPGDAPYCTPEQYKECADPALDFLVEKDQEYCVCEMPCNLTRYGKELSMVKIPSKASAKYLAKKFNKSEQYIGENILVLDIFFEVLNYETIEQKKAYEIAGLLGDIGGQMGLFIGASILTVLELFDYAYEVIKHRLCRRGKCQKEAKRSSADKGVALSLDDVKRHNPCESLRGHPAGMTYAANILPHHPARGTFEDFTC
Chain of human acid sensing ion channel subtype 1a (homomeric, expressed in Xenopus laevis oocytes) (human), P78348 (P78348 whole entry): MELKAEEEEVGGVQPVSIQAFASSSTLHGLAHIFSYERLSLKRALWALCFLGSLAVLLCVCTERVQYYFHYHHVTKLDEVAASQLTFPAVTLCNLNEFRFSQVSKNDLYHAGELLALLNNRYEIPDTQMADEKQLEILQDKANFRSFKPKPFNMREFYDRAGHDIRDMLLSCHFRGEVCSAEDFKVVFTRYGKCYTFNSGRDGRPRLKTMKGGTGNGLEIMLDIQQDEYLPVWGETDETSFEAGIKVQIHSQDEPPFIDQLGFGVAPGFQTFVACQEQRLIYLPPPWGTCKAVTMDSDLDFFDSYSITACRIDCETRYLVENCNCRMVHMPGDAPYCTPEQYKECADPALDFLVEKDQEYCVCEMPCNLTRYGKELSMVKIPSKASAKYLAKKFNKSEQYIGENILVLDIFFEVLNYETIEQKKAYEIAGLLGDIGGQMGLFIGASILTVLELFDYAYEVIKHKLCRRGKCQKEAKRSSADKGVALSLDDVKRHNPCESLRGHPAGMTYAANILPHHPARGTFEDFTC
Chain of rat acid sensing ion channel subtype 1b (homomeric, expressed in Xenopus laevis oocytes) (rat), P55926 (P55926 whole entry): as the sequence (P55926 whole entry) above

In assay [1], “recombinant Hi1a (π-hexatoxin-Hi1a) expressed in E. coli (peptide)” displayed a % Residual Current of 30% and an IC50 (inhibition of acid-evoked current, TEVC, Xenopus oocytes) of 0.46 nM.

As for “N-terminal ICK domain of Hi1a (Hi1a-N), produced in E. coli (peptide)”, in assay [1], the IC50 (inhibition of acid-evoked current, TEVC, Xenopus oocytes) was found to be 1000 nM and the fold lower potency than PcTx1 or full-length Hi1a amounted to 1000 fold.

In turn, “recombinant Hi1a (π-hexatoxin-Hi1a) expressed in E. coli” yielded an IC50 in assay [2] of 0.464 nM.

For the molecule “C-terminal ICK domain of Hi1a (Hi1a-C), produced in E. coli”, the IC50 in assay [2] is > 30000 nM.

Take recombinant Hi1d (peptide): in assay [1], the % Residual Current was found to be 0%; the IC50 (inhibition of acid-evoked current, TEVC, Xenopus oocytes) stood at 193 nM; the time to full reversal of inhibition on washout (TEVC) was < 60 s.

B1: recombinant Hi1a (π-hexatoxin-Hi1a) expressed in E. coli (peptide)
peptide: SNECIRKWLSCVDRKNDCCEGLECYKRRHSFEVCVPIPGFCLVKWKQCDGRERDCCAGLECWKRSGNKSSVCAPIT
For B1, in assay [3], the “fold higher potency at ASIC1a over this subtype (from 1 µM Hi1a, TEVC)” value is > 2000 fold and the “selectivity for ASIC1a over this subtype (from 30 nM Hi1a, TEVC)” value is ≥ 50 fold. For the same molecule, in assay [4], the “fold higher potency at ASIC1a over this subtype (from 1 µM Hi1a, TEVC)” value is > 2000 fold and the “selectivity for ASIC1a over this subtype (from 30 nM Hi1a, TEVC)” value is ≥ 50 fold. In assay [5], the % Residual Current turned out to be 20% and the IC50 (inhibition of acid-evoked current, TEVC, Xenopus oocytes) was determined as 0.59 nM. Besides, in assay [6], the fold higher potency at ASIC1a over this subtype (from 1 µM Hi1a, TEVC) was > 2000 fold and the selectivity for ASIC1a over this subtype (from 30 nM Hi1a, TEVC) is > 50 fold.

B2: recombinant engineered peptide #1 (EP 1), two copies of PcTx1 joined by a linker (designed binder)
peptide: SEDCIPKWKGCVNRHGDCCEGLECWKRRRSFEVCVPKTEDCIPKWKGCVNRHGDCCEGLECWKRRRSFEVCVPKTPKT
Consider B2, for which, in assay [1], the % Residual Current worked out at 0%; the IC50 (inhibition of acid-evoked current, TEVC, Xenopus oocytes) came to 64 nM; the fold increase in IC50 against wild-type Hi1a is 200 fold.

B3: recombinant engineered peptide #2 (EP 2), as EP 1 with a Glu to Gly mutation in the linker (designed binder)
peptide: SEDCIPKWKGCVNRHGDCCEGLECWKRRRSFEVCVPKTGDCIPKWKGCVNRHGDCCEGLECWKRRRSFEVCVPKTPKT
In assay [1], B3 had a % Residual Current of 0%; an IC50 (inhibition of acid-evoked current, TEVC, Xenopus oocytes) of 215 nM; a fold increase in IC50 against wild-type Hi1a of 500 fold.

Values taken from patent US20200061156A1 (UNIVERSITY OF QUEENSLAND, published 2020).
